US20200347135A1 (published 2020)
Numbering of substitutions follows the chain as printed.

B1: AS25067_HCAb (antibody, V domains shown)
VH: QVHLMESGGGAVQTGGSLRLSCAVSGISISPDCMGWFRQAPGKKREAVTTIFANTGSARYGDSVKGRFTSSQGNAKNTLYLQMDSVKLDDTGTYYCAARFTGGDCFDHQPLAWRFWGQGTQVTVSS
B2: AS25037_HCAb (antibody, V domains shown)
VH: EVQLAESGGGSVQAGGSLKLSCLASQWISSDCGMAWYRQAPGKERELVSRISSDDTTTYADSVKGRFTISQDSAKNTLYLQMNKLKTEDTGVYYCAAEAKSTITSLCYPLNYWGQGTQVTVSS
B3: AS25396_HCAb (antibody, V domains shown)
VH: QVHLMESGGGSVQAGGSLRLSCVVSGISISPDCMGWFRQAPGKKREAVATIFTNTRRTRYGDSVKGRVTSSQGNAKNTLYLKMDNLRHDDTATYYCAARYTGGDCFNLDPLSWRFWGQGTQVTVSS
B4: AS25115_HCAb (antibody, V domains shown)
VH: QVHLVESGGASVQAGGSLRLSCAATAYTASNYCMGWFRQSPGKEREAVASINDDGVTSYADSVKGRFTISQDSAKKTLYLQMNRLKPEDTAMYYCAATPDGYCYAERLSRWRYEFWGQGTQVTVSS
B5: AS25435_HCAb (antibody, V domains shown)
VH: B4 VH with H3Q, A10G, N31F, S40A, S58M, R66Q, K75T, D100E, R110T, E114T
B6: AS25064_HCAb (antibody, V domains shown)
VH: QVQLVESGGGSVQAGGSLRLTCAATGYSWRPDCMGWYRQAAEKEREGVAVIDADGITSYADAAKGRFTISRDNNKITLYLQMLKPDDTGMYVCVVGWRVSSGGNCQFNDYWGQGTQVTVSS
B7: AS25119_HCAb (antibody, V domains shown)
VH: B6 VH with S17P, K75N, V95I
B8: AS25071_HCAb (antibody, V domains shown)
VH: EVQLAESGGGSVQSGGSLRLSCAVSGSGYSYSRGCFAWFQQRPGKEREGVAIINSDGHTAYSDSVQGRFIISQDKAKNTLYLQMNSLKPDDTAMYYCAYDRSQCYVLRDRLRLPDTFTDWGQGTQVTVSS
B9: AS25149_HCAb (antibody, V domains shown)
VH: B8 VH with E1Q, A5V, R19K, A60R, T92A, S102N, R108L, D115G, T118S
B10: AS25164_HCAb (antibody, V domains shown)
VH: B8 VH with A5V, S32N, A60T, S62G, Y81D, S102N
B11: AS25156_HCAb (antibody, V domains shown)
VH: B8 VH with A5V, A60R, R101C
B12: AS25117_HCAb (antibody, V domains shown)
VH: EVQLAESGGGSVQAGGSLRLSCVISGTSISPDCMGWFRQAPGKKREAVMSIFTNTGSTRYGDSVKGRFTSSQGNAKNTLYLQMDSLKLDDTATYYCAARYTGGDCFNLEPLAWRFWGQGTQVTVSS
B13: AS25222_HCAb (antibody, V domains shown)
VH: QIQLVESGGGSVQAGGSLRLSCAVTGISISPDCMGWFRQAPGKKREAVATIFTNTASTRYGDSVKGRFTSSQGNGKNTLYLQMDSLNVDDTATYYCAARYTGGNCFNLEPLAWHFWGQGTQVTVSS
B14: AS25457_HCAb (antibody, V domains shown)
VH: B12 VH with E1Q, A5V, V23A, I24V, T27I, M49A, S50T, G56R, L111V
B15: AS24984_HCAb (antibody, V domains shown)
VH: QVHLMESGGGSVPSGGSLRLSCAVSGSGYSYSRGCFAWFQQRPGKEREGVAIINMDGHTRYSDSVQGRFIISQDKAKNTLHLQMNTLRPDDTAMYYCAYDRSQCYVLSDRLRLPGTFSDWGQGTQVTVSS
B16: AS15892 sdAb (VHH)
VHH: QIQLVESGGGSVQAGGSLRLSCAASGFTDSSYCGAWFRQVPGKEREGVAIIDRYGGTMYKDSVKGRFTISKDTAKNILYLQMNSLKLEDTAMYYCAAAEYRGSSCDAESGYWGQGTQVTVSS
B17: AS15883 sdAb (VHH)
VHH: B16 VHH with I2V, Q3H, V5M, R19T, G26V, S31N, G34M, E99G, E108D
B18: AS15881 sdAb (VHH)
VHH: B16 VHH with I2V
B19: AS15899 sdAb (VHH)
VHH: QVQLVESGGGSVQAGGSLRLSCAASGYTAGSLCMGWFRQAPGKEREGVAAIYTGGGSTYYADSVKGRFTISQDNAKNTVYLQMNSLKPEDTAQYYCGAGSREDYCDRGYIYDHWGQGTQVTVSS
B20: AS15872 sdAb (VHH)
VHH: QVQLVESGGGLVQPGGSLTLSCAASGFTFSTAAMSWVRQVPEEGLEWVASIDSSGSRTYYAGSVKGRFTISRDNAKNTLYLQLNSLKAEDTAMYYCAKDHMSWLPRGQGTQVTVSS
B21: AS06962 sdAb (VHH)
VHH: QVHLVDSGGGLVQPGGSLRLSCAASGSITSRNTMGWYRQVPGKQRELVALIATFVTHYADSVKGRFTISRDNARKMVFLEMNSLQPEDTGAYYCYVDVSPYWGRGTQVTVSS
B22: A31543 sdAb (VHH)
VHH: QVQLVESGGGKVQPGGSLRLSCAASGGTLDYYAIGWFRQAPGKEREAVSCISSSDGSTYYADSVKGRFTISRDNAKNTVYLQMNSLKPGDTAVYHCATDRACGSSWLGAESWAQGTQVTVSS

Each binder was assayed against T1, human PD-1 expressed on cells (UniProt Q15116 25-288) (assay: FACS binding).
T1 sequence (Q15116 25-288): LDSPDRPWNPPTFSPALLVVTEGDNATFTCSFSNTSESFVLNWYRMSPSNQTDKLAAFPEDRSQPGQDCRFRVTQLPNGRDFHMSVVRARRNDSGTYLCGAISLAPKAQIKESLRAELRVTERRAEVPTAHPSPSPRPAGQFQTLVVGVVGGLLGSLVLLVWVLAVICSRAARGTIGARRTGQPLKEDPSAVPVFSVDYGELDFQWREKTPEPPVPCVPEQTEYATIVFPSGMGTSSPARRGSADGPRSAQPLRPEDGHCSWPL

EC50 [nM]	Binder
4.96	B1
6.62	B2
3.84	B3
4.06	B4
4.91	B5
5.46	B6
3.29	B7
4.74	B8
10.7	B9
6.15	B10
9.18	B11
3.22	B12
4.59	B13
4.04	B14
7.22	B15

What follows are binders tested against recombinant PD-1 extracellular domain (ECD) protein (UniProt Q15116 25-170) (assay: SPR).
recombinant PD-1 extracellular domain (ECD) protein, sequence (Q15116 25-170): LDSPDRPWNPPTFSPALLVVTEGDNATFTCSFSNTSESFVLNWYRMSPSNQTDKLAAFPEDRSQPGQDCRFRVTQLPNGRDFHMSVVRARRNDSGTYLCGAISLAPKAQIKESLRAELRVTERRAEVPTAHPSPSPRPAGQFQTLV

Kd [nM]	Binder
2.67	B16
2.78	B17
2.31	B18
3.22	B19
14.5	B20
0.454	B21

What follows are binders tested against T1, human PD-1 expressed on cells (assay: FACS ligand competition (PD-L1 Fc)).

IC50 [nM]	Binder
3.51	B1
6.58	B2
1.34	B3
2.15	B4
2.7	B5
2.91	B6
1.57	B7
2.41	B8
8	B9
3.25	B10
6.04	B11
2.06	B12
1.66	B13
2.44	B14
4.59	B15

Each binder was assayed against T1, human PD-1 expressed on cells (assay: FACS competition with PD-L1 Fc).

IC50 [nM]	Binder
21.1	B22
193	B21

Target: T1, human PD-1 expressed on cells
Assay: FACS binding
Remark: another data set of the same source

EC50 [nM]	Binder
41.2	B22
79.2	B21

Target: T1, human PD-1 expressed on cells
Assay: FACS binding
Remark: another data set of the same source

EC50 [nM]	Binder
9.18	B11
